We go through 95 variants from the supplement of paper PMC10567573.

B1: ETS1 (parent)
chain: FSEPSFITESYQTLHPISSEELLS
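Further: lentivirally expressed fusions sorted by FACS into six bins by GFP to DsRed ratio, PSI derived from sequencing read proportions per bin multiplied by bin number.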

In this series the parent is B1. Put plainly: protein stability index of a GFP-peptide fusion (GPS, HEK-293T) (PSI 1-6); higher = more stable. Conditions: c terminus: a fixed tail appended.
For the variant FSEPSRITESYQTLHPISSEELLS, the protein stability index was found to be 4.13.
FSEPSPITESYQTLHPISSEELLS: the protein stability index came to 4.26.
Next, FSEPSEITESYQTLHPISSEELLS: 4.53.
Next, FSEPSQITESYQTLHPISSEELLS: 4.76; FSEPSTITESYQTLHPISSEELLS: 4.34.
Next, WSEPSFITESYQTLHPISSEELLS: 3.67; ESEPSFITESYQTLHPISSEELLS: 4.56.
For QSEPSFITESYQTLHPISSEELLS, the protein stability index was determined as 4.43.
For CSEPSFITESYQTLHPISSEELLS, the protein stability index is 3.52.
Turning to GSEPSFITESYQTLHPISSEELLS, the protein stability index was determined as 4.4.
To PSEPSFITESYQTLHPISSEELLS belongs 4.23; to DSEPSFITESYQTLHPISSEELLS, 4.47.
Regarding LSEPSFITESYQTLHPISSEELLS, the protein stability index is 4.45.
For KSEPSFITESYQTLHPISSEELLS, the protein stability index came out at 4.06.
Next, HSEPSFITESYQTLHPISSEELLS: 4.1.
On to VSEPSFITESYQTLHPISSEELLS, for which the protein stability index came to 4.18.
NSEPSFITESYQTLHPISSEELLS: the protein stability index was found to be 4.24.
To MSEPSFITESYQTLHPISSEELLS belongs 4; to YSEPSFITESYQTLHPISSEELLS, 2.1; to SSEPSFITESYQTLHPISSEELLS, 4.07.
To TSEPSFITESYQTLHPISSEELLS belongs 4.51; to ASEPSFITESYQTLHPISSEELLS, 4.17; to ISEPSFITESYQTLHPISSEELLS, 4.03.
Regarding RSEPSFITESYQTLHPISSEELLS, the protein stability index worked out at 4.2.
Next, FSEGSFITESYQTLHPISSEELLS: 2.37; FSEKSFITESYQTLHPISSEELLS: 2.45.
To FSEWSFITESYQTLHPISSEELLS belongs 2.17; to FSEFSFITESYQTLHPISSEELLS, 1.92.
As for FSEDSFITESYQTLHPISSEELLS, the protein stability index came to 3.65.
Next, FSEYSFITESYQTLHPISSEELLS: 2.2.
Consider FSEMSFITESYQTLHPISSEELLS, for which the protein stability index turned out to be 2.19.
As to FSESSFITESYQTLHPISSEELLS, the protein stability index came out at 2.39.
Consider FSEQSFITESYQTLHPISSEELLS, for which the protein stability index was found to be 2.81.
As to FSELSFITESYQTLHPISSEELLS, the protein stability index was 2.03.
To FSECSFITESYQTLHPISSEELLS belongs 2.2; to FSEVSFITESYQTLHPISSEELLS, 1.49; to FSEESFITESYQTLHPISSEELLS, 3.19.
To FSENSFITESYQTLHPISSEELLS belongs 2.99.
Next, FSETSFITESYQTLHPISSEELLS: 2.65.
As to FSERSFITESYQTLHPISSEELLS, the protein stability index amounted to 2.13.
FSEASFITESYQTLHPISSEELLS: the protein stability index is 2.21.
Turning to FSEISFITESYQTLHPISSEELLS, the protein stability index was 1.54.
Consider FSEHSFITESYQTLHPISSEELLS, for which the protein stability index was 2.54.
To FSYPSFITESYQTLHPISSEELLS belongs 2.23; to FSPPSFITESYQTLHPISSEELLS, 2.9.
Take FSGPSFITESYQTLHPISSEELLS: the protein stability index is 2.
In the case of FSMPSFITESYQTLHPISSEELLS, the protein stability index came out at 1.9.
On to FSCPSFITESYQTLHPISSEELLS, for which the protein stability index is 1.7.
With FSWPSFITESYQTLHPISSEELLS, the protein stability index is 1.5.
To FSIPSFITESYQTLHPISSEELLS belongs 1.77; to FSRPSFITESYQTLHPISSEELLS, 2.25; to FSHPSFITESYQTLHPISSEELLS, 2.17.
As for FSAPSFITESYQTLHPISSEELLS, the protein stability index was 2.37.
To FSTPSFITESYQTLHPISSEELLS belongs 2.35; to FSNPSFITESYQTLHPISSEELLS, 1.87; to FSQPSFITESYQTLHPISSEELLS, 1.7.
Next, FSVPSFITESYQTLHPISSEELLS: 2.5; FSLPSFITESYQTLHPISSEELLS: 1.81.
To FSSPSFITESYQTLHPISSEELLS belongs 2.21.
Consider FSFPSFITESYQTLHPISSEELLS, for which the protein stability index stood at 1.6.
Next, FSKPSFITESYQTLHPISSEELLS: 2.05.
Take FSDPSFITESYQTLHPISSEELLS: the protein stability index turned out to be 1.74.
To FSEPLFITESYQTLHPISSEELLS belongs 1.99.
Next, FSEPWFITESYQTLHPISSEELLS: 2.11.
With FSEPKFITESYQTLHPISSEELLS, the protein stability index was 2.14.
Next, FSEPQFITESYQTLHPISSEELLS: 1.75.
Regarding FSEPCFITESYQTLHPISSEELLS, the protein stability index was 1.69.
In the case of FSEPIFITESYQTLHPISSEELLS, the protein stability index was found to be 1.48.
Next, FSEPYFITESYQTLHPISSEELLS: 1.8.
Next, FSEPTFITESYQTLHPISSEELLS: 2.1; FSEPMFITESYQTLHPISSEELLS: 2.37.
Next, FSEPEFITESYQTLHPISSEELLS: 2.35; FSEPGFITESYQTLHPISSEELLS: 2.09.
In the case of FSEPFFITESYQTLHPISSEELLS, the protein stability index is 2.26.
Turning to FSEPRFITESYQTLHPISSEELLS, the protein stability index is 2.63.
To FSEPAFITESYQTLHPISSEELLS belongs 2.07.
To FSEPVFITESYQTLHPISSEELLS belongs 1.91; to FSEPNFITESYQTLHPISSEELLS, 2.34.
Next, FSEPDFITESYQTLHPISSEELLS: 2.51.
On to FSEPHFITESYQTLHPISSEELLS, for which the protein stability index was 1.58.
Next, FSEPPFITESYQTLHPISSEELLS: 2.66; FSEPSFRTESYQTLHPISSEELLS: 3.17; FSEPSFFTESYQTLHPISSEELLS: 1.68.
As for FSEPSFMTESYQTLHPISSEELLS, the protein stability index was determined as 2.31.
To FSEPSFATESYQTLHPISSEELLS belongs 1.59; to FSEPSFPTESYQTLHPISSEELLS, 3.09.
To FSEPSFGTESYQTLHPISSEELLS belongs 2.33; to FSEPSFQTESYQTLHPISSEELLS, 3.83; to FSEPSFHTESYQTLHPISSEELLS, 2.42.
Next, FSEPSFNTESYQTLHPISSEELLS: 4.24; FSEPSFLTESYQTLHPISSEELLS: 2.19.
As for FSEPSFETESYQTLHPISSEELLS, the protein stability index is 4.03.
FSEPSFCTESYQTLHPISSEELLS: the protein stability index was 2.03.
As to FSEPSFDTESYQTLHPISSEELLS, the protein stability index worked out at 4.01.
Next, FSEPSFKTESYQTLHPISSEELLS: 3.73.
